Assay results: patent EP4613775A1 (Eberhard Karls Universität Tübingen Medizinische Fakultät, dated 2025)

What was measured:
[1] = molecular target: T1, DDX53 peptide LKSGEKRLIPKPTCR (human); assay: peptide microarray epitope mapping (binding stretch)
T1 peptide: LKSGEKRLIPKPTCR

[2] = molecular target: T2, DDX53 peptide EAKVRIFGNREMKAK (human); assay: as above
T2 peptide: EAKVRIFGNREMKAK

[3] = molecular target: T3, DDX53 peptide SGEKRLIPKPTCRFK (human); assay: as above
T3 peptide: SGEKRLIPKPTCRFK

[4] = molecular target: T4, DDX53 peptide SRGLDLNDVTHVYNY (human); assay: as above
T4 peptide: SRGLDLNDVTHVYNY

[5] = molecular target: T5, DDX53 peptide HVYNYDFPRNIDVYV (human); assay: as above
T5 peptide: HVYNYDFPRNIDVYV

[6] = molecular target: T6, DDX53 peptide KVRIFGNREMKAKAK (human); assay: as above
T6 peptide: KVRIFGNREMKAKAK

[7] = molecular target: T7, DDX53 peptide RIFGNREMKAKAKAA (human); assay: as above
T7 peptide: RIFGNREMKAKAKAA

[8] = molecular target: T8, DDX53 peptide GLDLNDVTHVYNYDF (human); assay: as above
T8 peptide: GLDLNDVTHVYNYDF

[9] = molecular target: T9, DEAD-box helicase 53 (human, UniProt Q86TM3 1-631); assay: custom ELISA
T9 construct: Also the protein of the custom ELISA; also called DDX53; CAGE

[10] = molecular target: T10, AKR1A1 peptide TLADLQLEYLDLYLM (human); assay: peptide microarray epitope mapping (binding stretch)
T10 peptide: TLADLQLEYLDLYLM

[11] = molecular target: T11, AKR1A1 peptide YIVPMLTVDGKRVPR (human); assay: as above
T11 peptide: YIVPMLTVDGKRVPR

[12] = molecular target: T12, AKR1A1 peptide LQLEYLDLYLMHWPY (human); assay: as above
T12 peptide: LQLEYLDLYLMHWPY

[13] = molecular target: T13, AKR1A1 peptide TVDGKRVPRDAGHPL (human); assay: as above
T13 peptide: TVDGKRVPRDAGHPL

[14] = molecular target: T14, AKR1A1 peptide WRYIVPMLTVDGKRV (human); assay: as above
T14 peptide: WRYIVPMLTVDGKRV

[15] = molecular target: T15, AKR1A1 peptide LEYLDLYLMHWPYAF (human); assay: as above
T15 peptide: LEYLDLYLMHWPYAF

[16] = molecular target: T16, AKR1A1 peptide RKTLADLQLEYLDLY (human); assay: as above
T16 peptide: RKTLADLQLEYLDLY

[17] = molecular target: T17, AKR1A1 peptide ADLQLEYLDLYLMHW (human); assay: as above
T17 peptide: ADLQLEYLDLYLMHW

[18] = molecular target: T18, AKR1A1 peptide VPMLTVDGKRVPRDA (human); assay: as above
T18 peptide: VPMLTVDGKRVPRDA

[19] = molecular target: T19, AKR1A1 peptide MLTVDGKRVPRDAGH (human); assay: as above
T19 peptide: MLTVDGKRVPRDAGH

[20] = molecular target: T20, peptidylprolyl isomerase like 1 (human, UniProt Q9Y3C6 1-166); assay: custom ELISA
T20 construct: Also the protein of the custom ELISA; also called PPIL1
T20 sequence (looked up): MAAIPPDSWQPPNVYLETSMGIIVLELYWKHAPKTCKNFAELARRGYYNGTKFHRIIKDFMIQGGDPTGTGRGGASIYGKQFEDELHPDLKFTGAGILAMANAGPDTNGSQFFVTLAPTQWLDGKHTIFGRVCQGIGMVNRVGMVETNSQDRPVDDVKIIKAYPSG

[21] = molecular target: T21, phosphoribosylglycinamide formyltransferase, phosphoribosylglycinamide synthetase, … (human, UniProt P22102-2 1-433); assay: custom ELISA
T21 construct: Also the protein of the custom ELISA; also called GART
T21 sequence (looked up): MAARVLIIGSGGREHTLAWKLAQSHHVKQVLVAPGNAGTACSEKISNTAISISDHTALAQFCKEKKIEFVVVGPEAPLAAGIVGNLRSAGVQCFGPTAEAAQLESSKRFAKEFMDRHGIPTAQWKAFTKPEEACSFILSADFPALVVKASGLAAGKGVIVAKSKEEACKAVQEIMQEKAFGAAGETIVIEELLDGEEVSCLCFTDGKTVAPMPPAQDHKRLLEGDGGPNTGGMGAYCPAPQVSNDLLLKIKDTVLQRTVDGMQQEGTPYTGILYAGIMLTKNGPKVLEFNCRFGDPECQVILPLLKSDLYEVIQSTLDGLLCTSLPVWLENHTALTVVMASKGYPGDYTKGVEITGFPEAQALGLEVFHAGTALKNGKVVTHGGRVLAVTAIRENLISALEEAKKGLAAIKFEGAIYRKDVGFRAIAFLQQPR

[22] = molecular target: T22, microtubule associated scaffold protein 2 (human, UniProt Q5JR59-3 1-348); assay: custom ELISA
T22 construct: Also the protein of the custom ELISA; also called MTUS2; microtubule associated tumor suppressor candidate 2
T22 sequence (looked up): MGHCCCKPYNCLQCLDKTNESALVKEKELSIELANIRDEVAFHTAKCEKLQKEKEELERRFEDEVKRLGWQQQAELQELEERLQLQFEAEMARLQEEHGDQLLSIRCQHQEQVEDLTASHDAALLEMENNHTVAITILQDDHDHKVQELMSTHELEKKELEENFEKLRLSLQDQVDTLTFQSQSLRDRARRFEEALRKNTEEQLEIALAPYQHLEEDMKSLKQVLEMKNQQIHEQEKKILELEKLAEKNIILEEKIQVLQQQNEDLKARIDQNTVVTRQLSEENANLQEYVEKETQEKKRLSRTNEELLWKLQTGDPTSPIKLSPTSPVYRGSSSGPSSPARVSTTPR

[23] = molecular target: T23, aminoacylase 3 (human, UniProt Q96HD9 1-319); assay: custom ELISA
T23 construct: Also the protein of the custom ELISA; also called ACY3
T23 sequence (looked up): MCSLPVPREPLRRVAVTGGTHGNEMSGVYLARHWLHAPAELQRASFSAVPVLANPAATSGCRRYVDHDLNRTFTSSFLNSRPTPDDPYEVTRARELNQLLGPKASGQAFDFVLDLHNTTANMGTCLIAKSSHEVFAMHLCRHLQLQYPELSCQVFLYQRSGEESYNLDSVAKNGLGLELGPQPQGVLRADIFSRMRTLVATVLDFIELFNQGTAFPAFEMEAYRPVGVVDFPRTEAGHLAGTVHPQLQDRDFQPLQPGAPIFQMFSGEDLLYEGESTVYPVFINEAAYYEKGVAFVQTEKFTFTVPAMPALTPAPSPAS

[24] = molecular target: T24, kinesin family member C3 (human, UniProt Q9BVG8-5 1-687); assay: custom ELISA
T24 construct: Also the protein of the custom ELISA; also called KIFC3
T24 sequence (looked up): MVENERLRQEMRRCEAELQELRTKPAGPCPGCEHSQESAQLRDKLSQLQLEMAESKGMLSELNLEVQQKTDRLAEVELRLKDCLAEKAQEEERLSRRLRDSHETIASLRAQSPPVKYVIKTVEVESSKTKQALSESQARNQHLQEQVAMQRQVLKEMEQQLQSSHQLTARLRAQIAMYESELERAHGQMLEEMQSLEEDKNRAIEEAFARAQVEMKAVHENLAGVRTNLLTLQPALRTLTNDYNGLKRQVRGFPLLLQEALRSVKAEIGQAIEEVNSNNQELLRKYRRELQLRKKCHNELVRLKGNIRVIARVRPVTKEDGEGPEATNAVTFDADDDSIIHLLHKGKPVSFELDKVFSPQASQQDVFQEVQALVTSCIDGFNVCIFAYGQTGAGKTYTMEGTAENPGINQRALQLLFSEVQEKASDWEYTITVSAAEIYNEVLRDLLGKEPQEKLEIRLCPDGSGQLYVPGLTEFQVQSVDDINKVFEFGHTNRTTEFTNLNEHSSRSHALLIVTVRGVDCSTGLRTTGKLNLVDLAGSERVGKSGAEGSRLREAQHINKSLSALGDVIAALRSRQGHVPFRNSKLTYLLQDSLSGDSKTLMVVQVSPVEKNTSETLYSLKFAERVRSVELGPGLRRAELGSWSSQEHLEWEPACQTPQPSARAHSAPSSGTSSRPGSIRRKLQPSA

[25] = molecular target: T25, aldo-keto reductase family 1 member A1 (human, UniProt P14550 1-325); assay: custom ELISA
T25 construct: Also the protein of the custom ELISA; also called AKR1A1
T25 sequence (looked up): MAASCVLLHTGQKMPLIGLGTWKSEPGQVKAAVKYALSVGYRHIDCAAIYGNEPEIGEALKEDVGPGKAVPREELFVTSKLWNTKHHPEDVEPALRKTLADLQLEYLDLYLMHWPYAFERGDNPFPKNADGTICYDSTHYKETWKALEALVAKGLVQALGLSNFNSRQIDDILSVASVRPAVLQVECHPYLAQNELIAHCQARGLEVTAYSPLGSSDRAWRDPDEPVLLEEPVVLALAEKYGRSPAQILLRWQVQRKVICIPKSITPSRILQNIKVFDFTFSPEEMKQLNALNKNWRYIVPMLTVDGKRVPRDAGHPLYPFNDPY

[26] = molecular target: T26, magnesium dependent phosphatase 1 (human, UniProt Q86V88 1-176); assay: custom ELISA
T26 construct: Also the protein of the custom ELISA; also called MDP1

[27] = molecular target: T27, KIFC3 peptide ASDWEYTITVSAAEI (human); assay: peptide microarray epitope mapping (binding stretch)
T27 peptide: ASDWEYTITVSAAEI

[28] = molecular target: T28, KIFC3 peptide DWEYTITVSAAEIYN (human); assay: as above
T28 peptide: DWEYTITVSAAEIYN

[29] = molecular target: T29, KIFC3 peptide EYTITVSAAEIYNEV (human); assay: as above
T29 peptide: EYTITVSAAEIYNEV

[30] = molecular target: T30, KIFC3 peptide LGSWSSQEHLEWEPA (human); assay: as above
T30 peptide: LGSWSSQEHLEWEPA

[31] = molecular target: T31, KIFC3 peptide AELGSWSSQEHLEWE (human); assay: as above
T31 peptide: AELGSWSSQEHLEWE

[32] = molecular target: T32, KIFC3 peptide SWSSQEHLEWEPACQ (human); assay: as above
T32 peptide: SWSSQEHLEWEPACQ

T9 sequence (Q86TM3 whole entry): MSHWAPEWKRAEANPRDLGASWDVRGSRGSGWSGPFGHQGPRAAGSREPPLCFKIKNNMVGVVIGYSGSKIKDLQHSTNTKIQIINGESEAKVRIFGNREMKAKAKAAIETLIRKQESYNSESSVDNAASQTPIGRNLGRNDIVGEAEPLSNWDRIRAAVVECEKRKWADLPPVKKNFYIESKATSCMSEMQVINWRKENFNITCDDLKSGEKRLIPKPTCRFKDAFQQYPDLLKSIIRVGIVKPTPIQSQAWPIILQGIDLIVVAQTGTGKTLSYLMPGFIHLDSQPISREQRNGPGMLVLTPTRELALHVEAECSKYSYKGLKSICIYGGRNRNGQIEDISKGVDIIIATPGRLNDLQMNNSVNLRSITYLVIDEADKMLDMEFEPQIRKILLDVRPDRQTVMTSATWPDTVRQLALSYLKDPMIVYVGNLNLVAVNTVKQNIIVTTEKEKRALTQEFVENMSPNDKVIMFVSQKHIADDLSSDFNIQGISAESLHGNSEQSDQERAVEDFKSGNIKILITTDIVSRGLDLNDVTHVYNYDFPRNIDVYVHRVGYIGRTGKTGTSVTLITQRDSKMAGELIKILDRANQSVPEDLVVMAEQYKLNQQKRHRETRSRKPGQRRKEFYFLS
T26 sequence (Q86V88 whole entry): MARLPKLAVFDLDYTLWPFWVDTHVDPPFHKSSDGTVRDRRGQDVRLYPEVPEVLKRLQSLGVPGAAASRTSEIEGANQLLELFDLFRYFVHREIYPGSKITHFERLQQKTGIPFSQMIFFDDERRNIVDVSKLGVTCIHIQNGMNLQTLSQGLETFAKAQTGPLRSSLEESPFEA

B1: recombinant antibody P1-B4 (antibody, V domains shown)
VH: QVQLVESGPEVKKPGASVKVSCKASGYTFTSYGISWVRQAPGQGLEWMGWISVYKSDTNDAQKFQGRVTMTTDTSTSTAYMELRSLRSDDTAVYYCARSRGIVGSTLDDNWGQGTLVTVSS
VL: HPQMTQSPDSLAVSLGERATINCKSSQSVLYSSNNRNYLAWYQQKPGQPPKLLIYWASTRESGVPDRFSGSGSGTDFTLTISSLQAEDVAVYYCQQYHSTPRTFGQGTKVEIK
notes: also called clone P1-B4
binding result [1]: binds
binding result [2]: binds
binding result [3]: binds
binding result [4]: binds
binding result [5]: binds
binding result [6]: binds
binding result [7]: binds
binding result [8]: binds
binding result [9]: binds

B2: recombinant antibody P3-F1 (antibody, V domains shown)
VH: QVQLVESGPTLVKPTQTLTVTCTFSGFSLNTRAVGVGWIRQPPGGALEWLALVYWDDDKRYSPSLKNRLTITKDTSRNQVVLTLTNVAPVDTGTYYCSHHRLTDGRLRWGQGTLVTVSS
VL: QVQLVQSPGTLSLSPGERATLSCRASQSITSSYLAWYQQKFGQAPRLLIYRASNRATGIPDRFSGSGSGTDFTLTISSLESEDFAVYYCQQYDTSPWTFGQGTKVEIK
notes: also called clone P3-F1
binding result [10]: binds
binding result [11]: binds
binding result [12]: binds
binding result [13]: binds
binding result [14]: binds
binding result [15]: binds
binding result [16]: binds
binding result [17]: binds
binding result [18]: binds
binding result [19]: binds
binding result [20]: no binding
binding result [9]: no binding
binding result [21]: no binding
binding result [22]: no binding
binding result [23]: no binding
binding result [24]: no binding
binding result [25]: binds
binding result [26]: no binding

B3: recombinant antibody P1-F6 (antibody, V domains shown)
VH: QVPLKESGPALVKPTRTLTLTCTFSGFSLSTNGVSVGWIRQPPGKALDWLALIYWNDDKRYSPSLKNRLTITKDTSKNLVVLRMTNMDPVDTATYYCAHRPIASSRDGFDYWGQGTLVTVSS
VL: DIQMTQFPSTLSASVGETVTISCRASQSVSGWLAWYQQKPGKAPKLLMYKASALENGVPSRFSGSGSGTEFTLTISSLQPDDFATYYCQQYNGFPFTFGPGTKVDIN
notes: also called clone P1-F6
binding result [27]: binds
binding result [28]: binds
binding result [29]: binds
binding result [30]: binds
binding result [31]: binds
binding result [32]: binds
binding result [23]: binds
